In the nanobody polyreactivity screen of Harvey et al. (2022):

experiment: yeast display, Sf9 membrane polyspecificity reagent, FACS + sequencing; frameworks hold sequencing errors
In short: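 In a synthetic yeast display library (Saccharomyces cerevisiae BJ5465), nanobody expression was induced with galactose for 36–48 hours. FACS gates were set low and high (top ~1%) using anti-HA fluorescence for expression and streptavidin fluorescence for binding of the Sf9 membrane reagent. Each polyreactivity label is drawn from the gate of origin.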

| Sequence | polyreactivity (PSR sort gate) |
| --- | --- |
| QVQLVESRGGLVQAGGSLRLTCAASGFTFGFYGMGWYRPAPGKERELVARITWRSGSTYYADSVKGRFTISRDNAKNSVYLKLNSLKPEDTAVYSCAADGFSYYVIRFDYWGQGTQVTVSS | low polyreactivity |
| QVQLVESGGGLVQAGGSLRLSCAASGRIISVYAMGWYRQAPGKERELVATITGGNTNYADSVKGRFTISRDNAKNTVYLQMNSLKPEDTAVYYCANQFLPSGVYYEYDSWGQGTQVTVSS | low polyreactivity |
| QVQLVESGGGLVQAGGSLRLSCAASGRIFSYNARGWYRQAPGKERELVAAISSDGSTYYADSVKGRFTISRDNAKNTVYLQMNSRKPEDTAVYYCAARQVLWFDYTTAQVGSYKVNSWGQGTQVTVSS | low polyreactivity |
| QVQLVESGGGLVQAGGSLRLSCAASGSTFDGNAMGWYRQAPGKERELDAAISWNSGSTYYADSVKGRFTISRDNAKNTVYLQMNSLKPEDTAVYYCAATYGTGRRSKYGYWGQGTQVTVSS | high polyreactivity |
| QVQLVESGGGLVQAGGSLRLSCAASGRTFRNNAMGWYRQAPGKEREFVAVISNTGGSTYYADSVKGRFTISRDNAKNTVYLQMYSLKPEDTAVYYCAVRPRYSQYYYWGQGTQVTVSS | high polyreactivity |
| QVQLVESGGGLVQAGGSLRLSCAASGRILYIYAMGWYRQAPGKERELVASISWTDGSTYYADSVKGRFTISRDNAKNTVYLQMNSLKPEDTAVYYCNAAYYYYWELKKYNYWGPGTQVTVSS | low polyreactivity |
| QVQLVESGGGLVQAGGSLRLSCAASGIIFTTNAMGWYRQAPGKERELVATITSGGGTYYADSVKGRFTISRDNAKNTVYLQMNSLKPVDTAVYYCAATPGWGPWIFDHSYVDFDYWGQGTQVTVSS | low polyreactivity |
| QDQLVESGGGLVQAGGRLRLSCAASGSTFWWYDMGWYRKAHGKDRELVAAINWSGGSTYYADSVKGRFTISRDNAKNTVYLQMNSLKPEDTAVYYCAKVGRETEYDYWGQGTQVTVSS | high polyreactivity |
| QVQLVESGGGLVQAGGSLRLSCAASGRTFRSNAMGWYRQAPGKERELVAAISKRGASTYYADSVKGRFTISRDNAKNTVYLQMNSLKPEVTAVYYCNTGAAKHAYDYWGQGTQVTVSS | high polyreactivity |
| QVQLVESGGGLVQAGGSLRLSCAASGRTFVVNAMGWYRQAPGKERELVATIRWSGGRTYYADSVKGRFTISRDNAKNTVYLQMNSLKPEDTAVYYCAADFKGLFSSELDYWGQGTQVTVSS | low polyreactivity |
| QVQLVESGGGLVQAGGSLRLICAASGRIYYGYAMGWYRQAPGKERELVSTITWSGGSTYYADSVKGRFTISRDNAKNTVYLQMNSLKPEDTAVYYCAAYSPYIYQAYRYDYWGQGTQVTVSS | low polyreactivity |
| QVQLVESGGGLVQAGGSLRLSCAASGRIFYYNAMGWYRQAPGKERELVAAITYIGGNTHYADSVKGRFTISRDNAKNTVYFQMNSLKPEDTAVYYCARGTVLGFYYEYGYWGQGTQVTVSS | low polyreactivity |
| QVQLVESGGGLVQAGGRLRLICAASGSTLYSYAMGWYRQAPGKEREFVAAISRRGGSTYYADSVKGRFTISRDNAKNTVYLQMNSLKPEDTAVYYCAARDSSYHWYGYWGQGTQVTVSS | high polyreactivity |
| QVQLVESGGGLVQAGGSLRLSCSASGGTFITNAMGWYRQAPGKERELVAAITSGGRTTYADSVKGRFTISRDNAKNTVYLQMNSLKPEDTAVYYCAADHVYSYTYNFDYWGQGTQVTVSS | low polyreactivity |
| QVQLVESGGGLVQAGGSLRLSCAASGSIFGQYAMGWYRQAPGKERELVAAISTRGGSTRYADSVKGRFTISRDNAKNTVYLQMNSLKPEDTAVYYCAARPGYLYDYWGQGTQVTVSS | high polyreactivity |
| QVQLVESGGGLVQAGGSLRLSCAASGSIYYTNAMGWYRQAPGKERELVAAISYGGTTTYADSVKGRFTISRDNAKNTVYLQMNSLKPEDTAVYYCNADWLYYGYWGYGHIWYDYWGQGTQVTVSS | low polyreactivity |
| QVHLVESGGGLVQAGGSLRLSCAASGITFAWYAMGRYRQAPGKERELVAAITRGGGSTYYADSVKGRFTISRDNAKNTGYLQMNSLKPEDTAVYYCAARPYSYPYGYWGQGTQVTVSS | low polyreactivity |
| QDQLVESGGGLVQAGGRLRLSCAASGRTFYWNAMGWYRQAPGKERELVAAINGGGSTYYADSVKGRFTISRDNAMNTVYLQINSLKQEDSAVYYCNAESYEFHRAWGDYDYWGHGTQVTVSS | low polyreactivity |
| QVQLVESGGGLVQAGGSLPLSCAASGRTFLYNAMGWYRQAPGKERELVAAITKSGGSTYYADSVKGRFTISLDNAKNTVYLQMNTLKPEDTAVYYCAAARRYAYTGGYWGQGTQVTVSS | high polyreactivity |
| QVQLVESGGRLVQAGGSLRLSCAASGITFVYYAMGWYRQAPGKERELVASISSGGSTYYADSVKGRFTISRDNAKNTVYLQMNSLKPEDTAVYDCAAPTGWYPAYGEYEYWGQGTQVTVSS | low polyreactivity |
| QVQLVESGGGLVQAGGSLRLSCAASGRIFTTYAMGWYRQAPGKERELVAAISRSGGSTYYADSVKGRFTISRDNAKNTVYLQMNSLKTEDTAVYYCAAVPTSNSFRSSFYYWGQGTQVTVSS | high polyreactivity |
| QVQLVESGGGLVQAGGSLRLSCAASGFIFSYNAMGWYRQAPGKERELVAAISSRGGSTYYADSVKGRFTISRDNAKNTVYLQTKSLKPEDTAVYYCAVASRRVYTAPYDYWGQGTQVTVSS | high polyreactivity |

| Sequence | polyreactivity (PSR sort gate) |
| --- | --- |
| QVQLVESGGGLVQAGGSLRLSCAASGGIFPQYAMGWYRQAPGKERQLVAAISRRGGRTYYADSVKGRFTISRDNAKNTDYLQMNSLKPEDTAVYYCNAGGSSGYDYWGQGTQVTVSS | high polyreactivity |
| QVQLVESGGGLVQAGCSLRITCAASGYTFYDYAMGWYRQAPRKERELVAAISSSGGSTYYAHSVKGRFTISRDTAKNTVYLQMISLKPEDTAVYYCDVRARRWRYNYWGQGTQVTVSS | high polyreactivity |
| QVQLVESGGGLVQAGGSLRLSSAASGRTFAVYTMRWYRQAPGKEREFVARIRYSGGNTYYADSVKRRFTLSRDNAKNTVYLQMNSLKPEDTAVYSCAARSRYRVYGSRNFDYWGQGSQVTVSS | high polyreactivity |
| QVQLVESGGGLVQAGGSLRLSCAASGSIFSGYVKGWYRQAPGKDMELVAAISGSGGSTYYADSVKGRFTISRDNAKNTVYFQMNSLKPEDTAVYYCNVDRSPTHIVGYGYWGQGTQVTVSS | low polyreactivity |
| QVQLVESGGGLVQAGGSLRLSCAASGRTFFGYAMGWYRQAPGKERELVAAISSGGSTYYADSVKGRFTISRDNAKNTVYLQMYSLKPEDTAVYYCATAFYYYTSGTTLLFRYDYWGQGTQVTVSS | low polyreactivity |
| QVQLVESGGGLVQAGGSLRLSCAASGSIFYRNAMGWYRQAPGKERELVAAISSDGSTNYADSVKGRFTISRDNAKNTVYLQMNSLKPEDTAVYYCAAPWTHILDYWGQGTQVTVSS | low polyreactivity |
| QEQLQERGGGLVQAGGSQRLGCAASGNISDAGYMGLYRQAPGKERELVAAIAAGSNTNYADSVKGRFTISRDNAKNTVYLQMNSLKPEDTAVFYCAVASYALVQYEYWGQGTQVTVNS | low polyreactivity |
| QVQLVESGGGLVQAGGTLRLSCAASGSIFYPNAMGWYRQAPGKERELVAASSWTGGSTRYADSVKGRFTISRDIAKNTVYLQMNSLKPEDTAVYYCAALYVYRPRTPYGYSGQGTQVTVSS | high polyreactivity |
| QVQLVESGGGLVQAGGSLRLSCAASGRTIRYYAMGWYRQAPGKERELVAAISWNGANTYYADSVKGRFTISRDNAKNTVYLQMNSLKPEDTAVYYCAATYYRWKGYDYWGQGTQVTVSS | high polyreactivity |
| QVQLVESGGGLVQAGGSLRLSCAASGRIFGNYAMGWSRQAPGKERELVSAITYSTGGTSTYADSVKGLFTISRDNAKNSVYLQMNSLKPEDTAVYYCAVRRQYRRAYSFSQSRYDYWGQGTQVTVSS | high polyreactivity |
| QVQLVESGGGLVQAGGSLRLSCAASGRTFVDYAMGWYRQAPGKERELVAAISSSGASTYYADSVKGRFTISRDNAKNTVYLQMNSLKPEDTAVYYCAARRHRTYGYWGQGTQVTVSS | high polyreactivity |
| QVQLLESGGGLVQAGGSLRLSCAASGFTFKRNAKGWYRQAPGKEREFVAAITSSGGSTYYADSVKGRFTISRDNAKNTVYLQMNSLKPEDTAVYYCAARSKGAYPTRPLPGGYGYWGQGTQVTVSS | high polyreactivity |
| QVQLVESGGGLVQAGGSLRLSCAASGSILLYYTMGWYRQAPGKERELVASITSGGRTYYADSVKGRFTISRDNAKNTVYLQMNSLKPEDTAVYYCAADVWKLYDYWGQGTQVTVSS | low polyreactivity |
| QVQLVESGGGLVQAGGSLRLSCAASGFIFSRYVMGWYRQAPGKERELVAAISRGGSTYYADSVKGRFTISRDNAKNTVYLQMNSLKPEDTAVYYCAVRSTRFLIYYPPYDYWGQGTQVTVSS | high polyreactivity |
| QVQLVESGGGLVQAGGSLRLSCAASGGTFYHNVMGWYRQAPGKERELVAAIRYSGGRTYYADSVKGRFTISRDNAKNTVYLQMNSQKPEDTAVYYCAVRSYYGPFGYWGQGTQVTVSS | high polyreactivity |
| QVQLVESGGGLVQAGGSLRLSCAASGRIFGVNAMGWYRQAPGKERELVADITGSGGSTYYADSVKGRFTISRDNAKNTVYLQMNCLKAEDTAVYYCATRWIGYTSQWDHFEYDYWGQGTQVTVSS | low polyreactivity |
| QVQLVESGGGLVQAGGSLRLSCAASGFTFRRYAMGWYRQAPGKEREFVAAITTRGSNTYYADSVKGRFTISRDNAKNTVYLQMNSLKPEDTAVYYCAASYYPPGHYDYWGQGTQVTVSS | high polyreactivity |
| QVQLVESGGGLVQAGGSLRLSCAASGFIFSKYAMGWYRQAPGKERELVAAITSGGSTYYADSVKGRFTISRDNAKNTVYLQMNSLKPEDTAVYYCAADSYVPNLNYDYWGQGTQVNVSS | low polyreactivity |
| QVQLVESGGGLVQAGGSLRLSCAASGITFWYYAMGWYRQAPGKERELVAAINWSGGSTYYADSVKGRFTISRDNAKNTVYLQMNSLKPEDTAVYYCAAEFGLWPYEYGYWGQGTQVTVSS | high polyreactivity |
| QVQLVESGGGLVQAGGSLRLSCAASGFIFVFYDMGWYRQAPGKERELVAGITRNDGSTYYADSVKGRFKISRDNAKNTVYLLMNSLKPEDTAVYYCAADRVRRNDKLAYDYWGQGTQVTVSS | low polyreactivity |
| QVQLVESGGGLVQAGGSLRLICAASGSIFRYAMGWYRQAPGKERELVAAINRSGGSTYYADSVKGRFTISRDNAKNTVYLQMNSLKTEDTEVYYCAKDLRYGVNYRLVNRYGYWGQGTQVTVSS | high polyreactivity |
